Each block holds one binder with its values, some of them ahead of it.
Legend:
4H953-bA = target: T1, 4H953-bA; assay: two-hybrid library CCNG1;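 note: natural log of median RNA to DNA barcode read ratio; higher means stronger binding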
T1 chain: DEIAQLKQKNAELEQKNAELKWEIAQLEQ

4H918-bA = target: T2, 4H918-bA; assay: two-hybrid library CCNG1;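 note: natural log of median RNA to DNA barcode read ratio; higher means stronger binding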
T2 chain: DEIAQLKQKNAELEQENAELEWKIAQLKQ

4H687-bA = target: T3, 4H687-bA; assay: two-hybrid library CCNG1;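 note: natural log of median RNA to DNA barcode read ratio; higher means stronger binding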
T3 chain: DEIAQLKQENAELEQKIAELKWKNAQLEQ

4H906-bN = target: T4, 4H906-bN; assay: two-hybrid library CCNG1;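 note: natural log of median RNA to DNA barcode read ratio; higher means stronger binding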
T4 chain: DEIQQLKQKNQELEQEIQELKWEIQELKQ

4H72-bA = target: T5, 4H72-bA; assay: two-hybrid library CCNG1;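 note: natural log of median RNA to DNA barcode read ratio; higher means stronger binding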
T5 chain: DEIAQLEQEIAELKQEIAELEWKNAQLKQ

4H797-bA = target: T6, 4H797-bA; assay: two-hybrid library CCNG1;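 note: natural log of median RNA to DNA barcode read ratio; higher means stronger binding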
T6 chain: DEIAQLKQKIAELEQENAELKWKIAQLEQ

4H607-bA = target: T7, 4H607-bA; assay: two-hybrid library CCNG1
T7 chain: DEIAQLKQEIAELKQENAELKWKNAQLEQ

4H570-bA = target: T8, 4H570-bA; assay: two-hybrid library CCNG1
T8 chain: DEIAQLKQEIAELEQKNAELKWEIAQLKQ

O6-bA = target: T9, O6-bA; assay: two-hybrid library CCNG1
T9 chain: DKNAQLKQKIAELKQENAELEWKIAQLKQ

4H883-bA = target: T10, 4H883-bA; assay: two-hybrid library CCNG1
T10 chain: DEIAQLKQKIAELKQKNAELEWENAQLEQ

4H967-bA = target: T11, 4H967-bA; assay: two-hybrid library CCNG1
T11 chain: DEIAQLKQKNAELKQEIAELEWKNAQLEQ

4H462-bA = target: T12, 4H462-bA; assay: two-hybrid library CCNG1
T12 chain: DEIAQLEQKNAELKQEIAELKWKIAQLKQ

4H568-bA = target: T13, 4H568-bA; assay: two-hybrid library CCNG1
T13 chain: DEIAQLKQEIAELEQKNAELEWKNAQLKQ

APC7099-AA = target: T14, APC7099-AA; assay: two-hybrid library CCmax; settings: mean of both orientations
T14 chain: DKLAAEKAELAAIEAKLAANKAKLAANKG

APC232-AA = target: T15, APC232-AA; assay: two-hybrid library CCmax; settings: mean of both orientations
T15 chain: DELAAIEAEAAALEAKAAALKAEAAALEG

APC4264-AA = target: T16, APC4264-AA; assay: two-hybrid library CCmax; settings: mean of both orientations
T16 chain: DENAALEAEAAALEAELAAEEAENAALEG

APC9319-AA = target: T17, APC9319-AA; assay: two-hybrid library CCmax; settings: mean of both orientations
T17 chain: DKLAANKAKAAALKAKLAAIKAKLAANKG

APC1434-AA = target: T18, APC1434-AA; assay: two-hybrid library CCmax
T18 chain: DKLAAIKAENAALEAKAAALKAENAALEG

APC4436-AA = target: T19, APC4436-AA; assay: two-hybrid library CCmax; settings: mean of both orientations
T19 chain: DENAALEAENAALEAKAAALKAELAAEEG

APC8910-AA = target: T20, APC8910-AA; assay: two-hybrid library CCmax; settings: mean of both orientations
T20 chain: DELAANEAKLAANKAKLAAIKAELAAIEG

APC3645-AA = target: T21, APC3645-AA; assay: two-hybrid library CCmax; settings: mean of both orientations
T21 chain: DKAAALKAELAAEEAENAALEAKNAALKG

APC2405-AA = target: T22, APC2405-AA; assay: two-hybrid library CCmax; settings: mean of both orientations
T22 chain: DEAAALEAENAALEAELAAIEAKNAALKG

APC2237-AA = target: T23, APC2237-AA; assay: two-hybrid library CCmax; settings: mean of both orientations
T23 chain: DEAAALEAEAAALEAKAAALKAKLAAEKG

APC8191-AA = target: T24, APC8191-AA; assay: two-hybrid library CCmax; settings: mean of both orientations
T24 chain: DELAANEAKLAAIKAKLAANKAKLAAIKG

APC9096-AA = target: T25, APC9096-AA; assay: two-hybrid library CCmax; settings: mean of both orientations
T25 chain: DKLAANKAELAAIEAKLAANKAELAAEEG

APC5383-AA = target: T26, APC5383-AA; assay: two-hybrid library CCmax; settings: mean of both orientations
T26 chain: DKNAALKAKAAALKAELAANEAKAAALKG

APC4011-AA = target: T27, APC4011-AA; assay: two-hybrid library CCmax; settings: mean of both orientations
T27 chain: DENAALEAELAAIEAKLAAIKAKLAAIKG

APC6108-AA = target: T28, APC6108-AA; assay: two-hybrid library CCmax; settings: mean of both orientations
T28 chain: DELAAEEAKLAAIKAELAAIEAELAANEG

4H3782-bN = target: T29, 4H3782-bN; assay: two-hybrid library CCNG1
T29 chain: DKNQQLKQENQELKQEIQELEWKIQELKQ

4H797-bN = target: T30, 4H797-bN; assay: two-hybrid library CCNG1
T30 chain: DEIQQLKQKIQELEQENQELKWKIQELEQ

4H4001-bN = target: T31, 4H4001-bN; assay: two-hybrid library CCNG1
T31 chain: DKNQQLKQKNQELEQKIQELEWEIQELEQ

4H72-bN = target: T32, 4H72-bN; assay: two-hybrid library CCNG1
T32 chain: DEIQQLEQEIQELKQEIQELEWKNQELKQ

4H3606-bN = target: T33, 4H3606-bN; assay: two-hybrid library CCNG1; settings: mean of both orientations
T33 chain: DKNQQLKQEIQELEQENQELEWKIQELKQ

4H953-bN = target: T34, 4H953-bN; assay: two-hybrid library CCNG1
T34 chain: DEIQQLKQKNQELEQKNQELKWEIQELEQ

4H462-bN = target: T35, 4H462-bN; assay: two-hybrid library CCNG1
T35 chain: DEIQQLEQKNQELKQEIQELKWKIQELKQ

4H967-bN = target: T36, 4H967-bN; assay: two-hybrid library CCNG1
T36 chain: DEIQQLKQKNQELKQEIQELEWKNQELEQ

4H3843-bN = target: T37, 4H3843-bN; assay: two-hybrid library CCNG1
T37 chain: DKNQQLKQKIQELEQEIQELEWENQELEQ

4H687-bN = target: T38, 4H687-bN; assay: two-hybrid library CCNG1
T38 chain: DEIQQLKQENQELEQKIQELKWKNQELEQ

4H568-bN = target: T39, 4H568-bN; assay: two-hybrid library CCNG1
T39 chain: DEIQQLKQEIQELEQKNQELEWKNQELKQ

4H607-bN = target: T40, 4H607-bN; assay: two-hybrid library CCNG1
T40 chain: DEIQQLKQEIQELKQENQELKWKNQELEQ

4H370-bN = target: T41, 4H370-bN; assay: two-hybrid library CCNG1
T41 chain: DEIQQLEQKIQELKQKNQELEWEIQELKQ

4H918-bN = target: T42, 4H918-bN; assay: two-hybrid library CCNG1
T42 chain: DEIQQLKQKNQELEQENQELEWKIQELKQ

4H883-bN = target: T43, 4H883-bN; assay: two-hybrid library CCNG1
T43 chain: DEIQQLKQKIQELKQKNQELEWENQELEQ

interaction score (4H953-bA): -0.872 | interaction score (4H918-bA): -1.06 | interaction score (4H687-bA): 0.993 | interaction score (4H906-bN): 0.676 | interaction score (4H72-bA): 0.312 | interaction score (4H797-bA): -0.251 | interaction score (4H607-bA): -0.0392 | interaction score (4H570-bA): -2.87 | interaction score (O6-bA): 1.7 | interaction score (4H883-bA): -1.19 | interaction score (4H967-bA): -0.0789 | interaction score (4H462-bA): 1.24 | interaction score (4H568-bA): -0.962
Binder: DEIAQLEQKNAELKQEIAELKWKIAQLKQ [4H462-bA]

interaction score (APC7099-AA): -1.28 | interaction score (APC232-AA): -1.48 | interaction score (APC4264-AA): -1.64 | interaction score (APC9319-AA): -1.75 | interaction score (APC1434-AA): -1.78 | interaction score (APC4436-AA): -1.61 | interaction score (APC8910-AA): -1.81 | interaction score (APC3645-AA): -1.31 | interaction score (APC2405-AA): -1.36 | interaction score (APC2237-AA): -1.66 | interaction score (APC8191-AA): -1.74 | interaction score (APC9096-AA): -1.36 | interaction score (APC5383-AA): -1.97 | interaction score (APC4011-AA): -1.72 | interaction score (APC6108-AA): -1.79
Binder: DKLAAIKAENAALEAKAAALKAENAALEG [APC1434-AA]

interaction score (4H3782-bN): -0.77 | interaction score (4H797-bN): -0.386 | interaction score (4H4001-bN): -0.219 | interaction score (4H72-bN): -0.312 | interaction score (4H3606-bN): -0.385 | interaction score (4H953-bN): -0.614 | interaction score (4H462-bN): -0.288 | interaction score (4H967-bN): -1.43 | interaction score (4H3843-bN): -0.0433 | interaction score (4H687-bN): 0.128 | interaction score (4H568-bN): 1.07 | interaction score (4H607-bN): 0.0432 | interaction score (4H370-bN): -0.0845 | interaction score (4H918-bN): -0.149 | interaction score (4H883-bN): -1.5
Binder: DKNQQLKQEIQELEQENQELEWKIQELKQ [4H3606-bN]

Reference: paper PMC10397247
